Columns and labels:
Experiment in all cases: SPR; Biacore T200; antibody captured on anti-human Fc (CM5 chip); CD30-MBP flowed at 0, 2, 20 nM (T426: 0, 20, 200 nM), contact 90 s, dissociation 300 s; fit to a 1:1 binding mode; rough-level analysis
Details in all cases: both partners purified
BpT107-25 = biological target: T1, BpT107-25
T1 construct: T107 Fv, N side; T25 Fv, C side; one Fab of each Fv; knobs-into-holes Fc; source: Expi293 fragments joined by intein-mediated protein trans-splicing, purified (Superdex 200 Increase); copies: + + +
T1 sequence (chain, as listed by the source, chain 1 of 4): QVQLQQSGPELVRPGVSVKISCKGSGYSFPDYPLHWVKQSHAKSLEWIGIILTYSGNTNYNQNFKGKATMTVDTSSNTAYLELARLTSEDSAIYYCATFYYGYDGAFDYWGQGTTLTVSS
T1 sequence (chain, as listed by the source, chain 2 of 4): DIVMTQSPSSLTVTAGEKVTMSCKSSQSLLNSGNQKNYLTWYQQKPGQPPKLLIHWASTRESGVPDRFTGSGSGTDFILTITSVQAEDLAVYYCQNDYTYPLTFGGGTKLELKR
T1 sequence (chain, as listed by the source, chain 3 of 4): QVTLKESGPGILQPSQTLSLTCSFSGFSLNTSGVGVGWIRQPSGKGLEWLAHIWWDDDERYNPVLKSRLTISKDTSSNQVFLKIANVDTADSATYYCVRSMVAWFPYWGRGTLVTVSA
T1 sequence (chain, as listed by the source, chain 4 of 4): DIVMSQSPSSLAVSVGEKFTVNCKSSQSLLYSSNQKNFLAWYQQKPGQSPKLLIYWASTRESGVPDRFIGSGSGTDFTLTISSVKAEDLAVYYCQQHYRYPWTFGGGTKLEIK

BpT10-104 = biological target: T2, BpT10-104
T2 construct: AC10 Fv, N side; T104 Fv, C side; one Fab of each Fv; knobs-into-holes Fc; source: Expi293 fragments joined by intein-mediated protein trans-splicing, purified (Superdex 200 Increase); copies: + + +
T2 sequence (chain, as listed by the source, chain 1 of 4): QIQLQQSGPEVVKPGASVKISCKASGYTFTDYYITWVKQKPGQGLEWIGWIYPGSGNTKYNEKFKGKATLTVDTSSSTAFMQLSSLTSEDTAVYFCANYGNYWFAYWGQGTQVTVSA
T2 sequence (chain, as listed by the source, chain 2 of 4): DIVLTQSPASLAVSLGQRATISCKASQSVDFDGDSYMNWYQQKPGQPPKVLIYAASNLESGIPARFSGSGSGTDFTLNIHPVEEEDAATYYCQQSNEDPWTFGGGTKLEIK
T2 sequence (chain, as listed by the source, chain 3 of 4): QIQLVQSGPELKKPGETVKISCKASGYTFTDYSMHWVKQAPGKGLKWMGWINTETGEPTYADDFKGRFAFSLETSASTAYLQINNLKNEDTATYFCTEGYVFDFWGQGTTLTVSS
T2 sequence (chain, as listed by the source, chain 4 of 4): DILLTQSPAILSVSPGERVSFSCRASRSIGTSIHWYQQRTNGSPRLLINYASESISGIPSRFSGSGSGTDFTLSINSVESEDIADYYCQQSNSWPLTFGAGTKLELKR

BpT104-6 = biological target: T3, BpT104-6
T3 construct: T104 Fv, N side; T6 Fv, C side; one Fab of each Fv; knobs-into-holes Fc; source: Expi293 fragments joined by intein-mediated protein trans-splicing, purified (Superdex 200 Increase); copies: + + +
T3 sequence (chain, as listed by the source, chain 3 of 4): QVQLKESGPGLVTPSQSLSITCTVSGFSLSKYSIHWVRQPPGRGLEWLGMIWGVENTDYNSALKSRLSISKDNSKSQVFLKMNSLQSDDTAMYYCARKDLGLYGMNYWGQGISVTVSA
T3 sequence (chain, as listed by the source, chain 4 of 4): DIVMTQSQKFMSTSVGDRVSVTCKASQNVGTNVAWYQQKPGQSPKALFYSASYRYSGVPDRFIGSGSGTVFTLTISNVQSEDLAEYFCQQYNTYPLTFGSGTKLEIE

BpT427-6 = biological target: T4, BpT427-6
T4 construct: T427 Fv, N side; T6 Fv, C side; one Fab of each Fv; knobs-into-holes Fc; source: Expi293 fragments joined by intein-mediated protein trans-splicing, purified (Superdex 200 Increase); copies: + + +
T4 sequence (chain, as listed by the source, chain 1 of 4): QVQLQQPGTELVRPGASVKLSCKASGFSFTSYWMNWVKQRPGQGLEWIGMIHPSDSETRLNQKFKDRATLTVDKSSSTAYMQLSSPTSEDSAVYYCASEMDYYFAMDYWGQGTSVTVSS
T4 sequence (chain, as listed by the source, chain 2 of 4): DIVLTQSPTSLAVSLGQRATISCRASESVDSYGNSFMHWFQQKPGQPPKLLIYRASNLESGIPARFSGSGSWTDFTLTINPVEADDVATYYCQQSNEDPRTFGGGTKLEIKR

BpT10-405 = biological target: T5, BpT10-405
T5 construct: AC10 Fv, N side; T405 Fv, C side; one Fab of each Fv; knobs-into-holes Fc; source: Expi293 fragments joined by intein-mediated protein trans-splicing, purified (Superdex 200 Increase); copies: + + +

BpT105-107 = biological target: T6, BpT105-107
T6 construct: T105 Fv, N side; T107 Fv, C side; one Fab of each Fv; knobs-into-holes Fc; source: Expi293 fragments joined by intein-mediated protein trans-splicing, purified (Superdex 200 Increase); copies: + + +
T6 sequence (chain, as listed by the source, chain 1 of 4): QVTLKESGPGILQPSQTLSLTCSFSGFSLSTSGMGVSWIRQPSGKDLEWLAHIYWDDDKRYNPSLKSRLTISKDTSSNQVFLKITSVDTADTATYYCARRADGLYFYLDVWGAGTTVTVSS
T6 sequence (chain, as listed by the source, chain 2 of 4): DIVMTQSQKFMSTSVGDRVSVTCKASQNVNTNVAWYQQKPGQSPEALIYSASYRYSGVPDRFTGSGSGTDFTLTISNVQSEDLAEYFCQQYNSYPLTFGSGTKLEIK

BpT105-405 = biological target: T7, BpT105-405
T7 construct: T105 Fv, N side; T405 Fv, C side; one Fab of each Fv; knobs-into-holes Fc; source: Expi293 fragments joined by intein-mediated protein trans-splicing, purified (Superdex 200 Increase); copies: + + +

BpT107-104 = biological target: T8, BpT107-104
T8 construct: T107 Fv, N side; T104 Fv, C side; one Fab of each Fv; knobs-into-holes Fc; source: Expi293 fragments joined by intein-mediated protein trans-splicing, purified (Superdex 200 Increase); copies: + + +

BpT107-6 = biological target: T9, BpT107-6
T9 construct: T107 Fv, N side; T6 Fv, C side; one Fab of each Fv; knobs-into-holes Fc; source: Expi293 fragments joined by intein-mediated protein trans-splicing, purified (Superdex 200 Increase); copies: + + +

B1: Maltose-binding protein-fused CD30 (domain or fragment)
chain: FPQDRPFEDTCHGNPSHYYDKAVRRCCYRCPMGLFPTQQCPQRPTDCRKQCEPDYYLDEADRCTACVTCSRDDLVEKTPCAWNSSRVCECRPGMFCSTSAVNSCARCFFHSVCPAGMIVKFPGTAQKNTVCEPASPGVSPACASPENCKEPSSGTIPQAKPTPVSPATSSASTMPVRGGTRLAQEAASKLTRAPDSPSSVGRPSSDPGLSPTQPCPEGSGDCRKQCEPDYYLDEAGRCTACVSCSRDDLVEKTPCAWNSSRTCECRPGMICATSATNSCARCVPYPICAAETVTKPQDMAEKDTTFEAPPLGTQPDCN
modifications: Construct 1-336 includes signal peptide 1-18, taken as cleaved on secretion; C-terminal MBP carrier and His tag left out; disulfide-bonded, likely glycosylated (Expi293)
Q: Which results are given for B1?
A: Kd (BpT107-25): 0.87 nM; Kd (BpT10-104): 0.26 nM; Kd (BpT104-6): 0.59 nM; Kd (BpT427-6): 0.26 nM; Kd (BpT10-405): 0.63 nM; Kd (BpT105-107): 0.26 nM; Kd (BpT105-405): 0.67 nM; Kd (BpT107-104): 0.4 nM; Kd (BpT107-6): 0.37 nM

From paper PMC11826918, “Generation of antagonistic biparatopic anti-CD30 antibody from an agonistic antibody by precise epitope determination and utilization of structural characteristics of CD30 molecule” (Antibody Therapeutics, 2025)
